Laboratory results reported in US20160032013A1 (Genentech, published 2016).
Residue numbers refer to the chain shown, from its start. In names and notes the source's numbering stands. Each block holds one binder with its values, some of them ahead of it.

Tests used:
[1] = molecular target: T1, Human RON on cells (3T3-hRON, A2780-hRON, BxPC3, human primary colon cells) (human, UniProt Q04912 25-1400); assay: radioligand binding to 3T3-hRON cells for 4 h on ice
T1 construct: That is its entry for human RON

[2] = molecular target: T1, Human RON on cells (3T3-hRON, …); assay: radioligand competition binding on 3T3-hRON cells: fixed 125I-MSP 689R as competitor, unlabeled MSP 689R titrated [Continued) D]
Description: (§1) MSP proteins were iodinated using the Iodogen method (Thermo Scientific) and purified from free Na¹²⁵I by gel filtration using a NAP-5 column. Specific activities ranged from 12.26 to 18.65 μCi/μg. Competition reaction mixtures were made of a fixed concentration of iodinated MSP and unlabeled MSP serially diluted 1- to 2-fold ten times starting at 5 μM in a volume of 50 μL. 3T3-hRon cells were washed with binding buffer, consisting of DMEM with 1% bovine serum albumin, 325 nM human IgG, 50 mM HEPES (pH 7.2) and 0.1% sodium azide. 150,000 cells in 0.2 ml binding buffer were added to competition reaction mixtures. Competition reactions with cells were incubated for 2 h at room temperature and transferred to a Multiscreen filter plate (Millipore) and washed 4 times with binding buffer. Filters were counted on a Wallac Wizard 1470 gamma counter (PerkinElmer Life and Analytical Sciences). Binding affinities were determined using NewLigand software (Genentech, Inc) (Munson et al., 1980, Anal Biochem 107:220-39).

[3] = molecular target: T2, Human RON-hIgG1 Fc (RON Sema/PSI/IPT1 fused to human IgG1 Fc) (human); assay: plate binding assay, plate-bound RON-Fc, soluble His-tagged MSP, anti-His-HRP, 4-parameter fit
T2 construct: also called RON-Fc; hRON-Fc
Text: (§2) Means of three replicates per group are shown. […] C presents results of SPR analysis of MSP proteins binding to immobilized RON Sema/PSI, showing relative response in response units. Data are representative of three independent experiments. […] Competition binding to 3T3-hRON cells (large graphs) used to generate affinities and Scatchard plots (inset graphs) are shown. Mean+/−standard deviation (SD) of three independent experiments is shown. E is a homology model of the structure of RON Sema/PSI (PDB code 4FWW) shown at the bottom, which binds to MSP β (PDB code 2ASU) shown on top. RON and MSP β were globally aligned to the Met/HGF β complex (PDB code 1SHY). Predicted locations of the MSP β contact residues within 4 Å of RON are marked by asterisks. […]
(§3) MaxiSorp plates (Nalge Nunc International) were coated overnight at 4° C. with 2 μg/ml of rabbit anti-human IgG Fc specific antibody (Jackson ImmunoResearch Laboratories) in 50 mM sodium carbonate buffer, pH 9.6. […] Bound MSP was detected using anti-His-HRP (Qiagen Inc.) followed by addition of TMB/H₂O₂ substrate (Thermo Scientific). The reaction was stopped with 1M H₃PO₄ and the absorbance at 450 nm (A₄₅₀) was measured on a SpectraMax Plus³⁸⁴ plate reader (Molecular Devices, LLC). The half maximal effective concentration of MSP (EC₅₀) was determined by a 4-parameter fit using Kaleidagraph (Synergy Software).

[4] = molecular target: T1, Human RON on cells (3T3-hRON, …); assay: radioligand binding to 3T3-hRON cells for 2 h at room temperature
Description: as §1

[5] = molecular target: T2, Human RON-hIgG1 Fc (RON Sema/PSI/IPT1 …); assay: plate binding assay, plate-bound RON-Fc, soluble His-tagged MSP β, anti-His-HRP, 4-parameter fit
Text: as §2, §3

[6] = molecular target: T2, Human RON-hIgG1 Fc (RON Sema/PSI/IPT1 …); assay: SPR capturing RON-Fc at 25 C
Description: To determine MSP protein binding kinetics to hRON-Fc or mRON-Fc fusion proteins, between 50 and 100 response units (RU) were captured on each of three immobilized anti-human Fc surfaces. Various concentrations (50-0.78 nM, 2-fold dilution series) of MSP, MSP β, MSP α or scMSP were injected in HBS-P buffer (10 mM HEPES, pH 7.5, 150 mM NaCl, 0.005% P20) at 25° C. with a flow rate of 30 μL/min and dissociation monitored for 4 min. Between measurements, the biosensor surfaces were regenerated with a 2 min pulse of 10 mM glycine-HCl pH 1.5.

[7] = molecular target: T2, Human RON-hIgG1 Fc (RON Sema/PSI/IPT1 …); assay: BLI using RON-Fc at 30 C
Description: Real-time kinetic measurements of MSP binding to RON were conducted using an Octet RED384 (ForteBio, Inc). Samples or buffer were dispensed into 96-well microtiter plates (Greiner Bio-One North America, Inc.) at a volume of 200 μl per well. Anti-human IgG Fc Biosensors were used for the experiments. Each experiment consisted of three steps: incubation with ForteBio Kinetic buffer diluted 1:10 in PBS assay buffer to establish an equilibrium for 120 s (baseline), incubation with 10 μg/ml RON-Fc in assay buffer to coat the biosensor with binding target for 900 s (load), incubation with MSP, MSP β or scMSP in assay buffer containing various concentrations (75-4.7 nM, 2-fold dilution series) for 400 s (association), and incubation with assay buffer to measure the off-rate of MSP for 400 s (dissociation). Operating temperature was maintained at 30° C. Data were generated automatically by the Octet Data Acquisition 7.0 software. Each data set was fitted globally to a simple one-to-one binding model using ForteBio Analysis Software 7.0 to determine the kinetic parameters kₐ and kd. The equilibrium dissociation constants (KD) were then calculated as a ratio (koff/kₒₙ) of these rate constants.

[8] = molecular target: T3, Mouse RON-hIgG1 Fc (murine RON Sema/PSI/IPT1, natural leader + R33-V684, fused to human IgG1 Fc) (mouse); assay: SPR (Biacore), anti-Fc chip, murine RON-Fc captured and MSP protein injected; table headed 'Similar High Affinities for Murine RON'
T3 construct: also called mRON-hFc; murine RON-Fc
Description: Binding kinetics of RON to MSP β-Fc fusion proteins and MSP proteins to RON-Fc fusions were determined using a Biacore 3000 optical biosensor equipped with a research-grade CM5 sensor chip (GE Healthcare). Amine coupling reagents, N-ethyl-N′-dimethylamino-propylcarbodiimide (EDC), N-hydroxy-succinimide (NHS) and sodium ethanolamine HCl, pH 8.5, were obtained from GE Healthcare. Standard coupling protocols were used to tether a rabbit anti-human IgG1 or rabbit anti-murine IgG2a (Jackson ImmunoResearch Laboratories) onto the biosensor surface. A biosensor chip that was subjected to the amine coupling procedure with no protein coupled was used to correct for non-specific binding. […] Various concentrations (500-3.9 nM, 2-fold dilution series) of RON-His, were injected in HBS-P buffer (10 mM HEPES, pH 7.5, 150 mM NaCl, 0.005% P20) at 25° C. with a flow rate of 30 μL/min and dissociation monitored for 240 sec. Between measurements, the biosensor surfaces were regenerated with a 120 s pulse of 10 mM glycine-HCl pH 1.5 followed by a 120 s wash with running buffer.
To function as a RON agonist, MSPβ-IgG2a fusion proteins must bind the RON receptor. To assay binding, surface plasmon resonance was used to measure the affinity of full-length human MSP, human and mouse MSP β, and a number of human and mouse MSPβ-IgG2a fusions for immobilized RON receptor. […]

[9] = molecular target: T4, Recombinant human RON Sema/PSI (residues E25-P568) with C-terminal His-tag (human, UniProt Q04912 25-568); assay: SPR using immobilized RON Sema/PSI at 25 C
T4 construct: Made in Trichoplusia ni insect cells

[10] = molecular target: T1, Human RON on cells (3T3-hRON, …); assay: radioligand competition binding on 3T3-hRON cells: fixed 125I-MSP 689C as competitor, unlabeled MSP 689C titrated [Continued) D]
Description: as §1

T2 sequence (chain, as listed by the source limits assumed): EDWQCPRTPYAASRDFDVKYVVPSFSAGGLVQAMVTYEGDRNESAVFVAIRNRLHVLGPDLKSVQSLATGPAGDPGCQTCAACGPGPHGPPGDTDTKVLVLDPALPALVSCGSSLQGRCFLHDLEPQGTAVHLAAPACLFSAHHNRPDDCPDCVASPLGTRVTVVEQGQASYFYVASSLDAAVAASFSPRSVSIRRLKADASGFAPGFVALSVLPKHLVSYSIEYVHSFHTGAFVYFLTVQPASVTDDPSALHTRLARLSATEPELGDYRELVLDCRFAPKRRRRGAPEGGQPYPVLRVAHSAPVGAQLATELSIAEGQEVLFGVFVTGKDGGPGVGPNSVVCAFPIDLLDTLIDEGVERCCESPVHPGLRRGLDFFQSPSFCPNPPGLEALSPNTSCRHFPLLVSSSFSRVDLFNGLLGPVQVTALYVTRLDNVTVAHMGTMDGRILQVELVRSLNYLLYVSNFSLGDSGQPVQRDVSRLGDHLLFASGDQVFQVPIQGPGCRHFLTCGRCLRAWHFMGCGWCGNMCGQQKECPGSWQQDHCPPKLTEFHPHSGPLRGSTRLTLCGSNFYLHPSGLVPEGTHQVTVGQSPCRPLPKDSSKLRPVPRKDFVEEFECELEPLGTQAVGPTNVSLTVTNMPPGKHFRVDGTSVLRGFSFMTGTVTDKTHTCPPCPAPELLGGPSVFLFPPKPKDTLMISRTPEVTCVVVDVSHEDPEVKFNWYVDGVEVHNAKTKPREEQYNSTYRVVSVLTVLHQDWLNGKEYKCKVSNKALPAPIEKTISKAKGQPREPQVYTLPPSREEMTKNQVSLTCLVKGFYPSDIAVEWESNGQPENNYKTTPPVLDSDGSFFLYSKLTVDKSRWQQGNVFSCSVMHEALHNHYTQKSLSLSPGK

B1: Full length human MSP 689R (wild type + C672A + His tag), active two-chain form (ligand)
chain 1: QRSPLNDFQVLRGTELQHLLHAVVPGPWQEDVADAEECAGRCGPLMDCRAFHYNVSSHGCQLLPWTQHSPHTRLRRSGRCDLFQKKDYVRTCIMNNGVGYRGTMATTVGGLPCQAWSHKFPNDHKYTPTLRNGLEENFCRNPDGDPGGPWCYTTDPAVRFQSCGIKSCREAACVWCNGEEYRGAVDRTESGRECQRWDLQHPHQHPFEPGKFLDQGLDDNYCRNPDGSERPWCYTTDPQIEREFCDLPRCGSEAQPRQEATTVSCFRGKGEGYRGTANTTTAGVPCQRWDAQIPHQHRFTPEKYACKDLRENFCRNPDGSEAPWCFTLRPGMRAAFCYQIRRCTDDVRPQDCYHGAGEQYRGTVSKTRKGVQCQRWSAETPHKPQFTFTSEPHAQLEENFCRNPDGDSHGPWCYTMDPRTPFDYCALRRCADDQPPSILDPPDQVQFEKCGKRVDRLDQRRSKLR
chain 2: VVGGHPGNSPWTVSLRNRQGQHFCGGSLVKEQWILTARQCFSSCHMPLTGYEVWLGTLFQNPQHGEPSLQRVPVAKMVCGPSGSQLVLLKLERSVTLNQRVALICLPPEWYVVPPGTKCEIAGWGETKGTGNDTVLNVALLNVISNQECNIKHRGRVRESEMCTEGLLAPVGACEGDYGGPLACFTHNAWVLEGIIIPNRVCARSRWPAVFTRVSVFVDWIHKVMRLGHHHHHH
notes: Pro-MSP converted with sHepsin into the disulfide-linked alpha/beta heterodimer; Numbering is that of pro-MSP; also called full-length MSP; human full-length MSP
Kd [1]: 23 nM | IC50 (read off the curve) [2]: ~10 nM | EC50 [3]: 0.1 nM | Kd [4]: 12.6 nM

B2: Human MSP β 689R with wild-type C672 (HGF leader + V484-G711 + C588S + C672C + His tag) (ligand)
chain: B1 chain 2 with C105S, A189C
EC50 [5]: 0.05 nM

B4: Full length human MSP R689C (wild type + C672A + R689C + His tag), active two-chain form (ligand)
chain 1: B1 chain 1
chain 2: B1 chain 2 with R206C
Kd [1]: 25.7 nM | Kd [6]: 9.6 nM | koff [6]: ~0.0016 s⁻¹ | kon [6]: ~170000 M⁻¹ s⁻¹ | Kd [7]: 9.4 nM | Kd [9]: 9.6 nM | koff [9]: 0.0012 s⁻¹ | kon [9]: 116000 M⁻¹ s⁻¹ | EC50 [3]: 0.2 nM | IC50 (read off the curve) [10]: ~10 nM | Kd [4]: 13 nM

B6: Hexahistidine-tagged murine MSP β (HGF leader + V489-E716 + C593A + C677A + His tag) (ligand)
chain: VVGGHPGNSPWTVSLRNRQGQHFCGGSLVKEQWVLTARQCIWSCHEPLTGYEVWLGTINQNPQPGEANLQRVPVAKAVCGPAGSQLVLLKLERPVILNHHVALIALPPEQYVVPPGTKCEIAGWGESIGTSNNTVLHVASMNVISNQECNTKYRGHIQESEICTQGLVVPVGACEGDYGGPLACYTHDAWVLQGLIIPNRVCARPRWPAIFTRVSVFVDWINKVMLEHHHHHHH
notes: also called Mouse MSP β
Kd [8]: 6.4 nM

Now from value to binder:

Kd [6]: 9.6 nM | koff [6]: 0.0275 s⁻¹ | kon [6]: 3.53e+06 M⁻¹ s⁻¹ | Kd [7]: 7.5 nM | koff [7]: 0.0025 s⁻¹ | kon [7]: 388000 M⁻¹ s⁻¹ | Kd [8]: 5.1 nM | Kd [9]: 6.6 nM | koff [9]: 0.0159 s⁻¹ | kon [9]: 2.45e+06 M⁻¹ s⁻¹
B3: Human MSP β 689R (HGF leader + V484-G711 + C588S + C672A + His tag) (ligand)
chain: B1 chain 2 with C105S
notes: This is an inference

EC50 [5]: 0.1 nM | Kd [6]: 9.7 nM | koff [6]: 0.0079 s⁻¹ | kon [6]: 870000 M⁻¹ s⁻¹
B5: Human MSP β R689C with wild-type C672 (HGF leader + V484-G711 + C588S + C672C + R689C + His tag) (ligand)
chain: B1 chain 2 with C105S, A189C, R206C
